Reference: the supplement of paper PMC10567573

B1: GLT8D2 (parent)
chain: QEAKLLHWNGRHKPWDFPSVHNDL
B2: PTPN9 (parent)
chain: NKWTVQYNVSPLSWNVAVKFLMAR

Variants of: B1
Assay: protein stability index of a GFP-peptide fusion (GPS, HEK-293T) (PSI 1-6); higher = more stable
Conditions: c terminus: a fixed tail appended
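Note: lentivirally expressed fusions sorted by FACS into six bins by GFP to DsRed ratio, PSI derived from sequencing read proportions per bin multiplied by bin number.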

Variant | protein stability index
H12A | 2.36
H12C | 2.71
H12D | 3.26
H12E | 3.19
H12F | 2.13
H12G | 2.59
H12I | 2.56
H12K | 2.73
H12L | 2.45
H12M | 2.6
H12N | 2.65
H12P | 2.68
H12Q | 2.58
H12R | 2.77
H12S | 2.77
H12T | 2.79
H12V | 2.61
H12W | 2.54
H12Y | 2.28
K13A | 2.85
K13C | 2.29
K13D | 3.73
K13E | 2.92
K13F | 2.69
K13G | 2.62

Variant | protein stability index
K13H | 2.47
K13I | 2.35
K13L | 2.26
K13M | 2.94
K13N | 2.77
K13P | 3.04
K13Q | 2.7
K13R | 2.86
K13S | 2.27
K13T | 2.84
K13V | 2.1
K13W | 2.29
K13Y | 2.43
P14A | 2.62
P14C | 2.06
P14D | 3.29
P14E | 3.16
P14F | 2.45
P14G | 2.87
P14H | 2.63
P14I | 2.03
P14K | 2.69
P14L | 2.33
P14M | 2.36
P14N | 2.66

Variant | protein stability index
P14Q | 2.27
P14R | 2.56
P14S | 2.68
P14T | 2.52
P14V | 2.09
P14W | 2.19
P14Y | 2.09
W15A | 3.7
W15C | 3.22
W15D | 3.59
W15E | 4.14
W15F | 2.88
W15G | 3.76
W15H | 3.17
W15I | 3.02
W15K | 3.27
W15L | 2.87
W15M | 3.48
W15N | 3.43
W15P | 3.81
W15Q | 4.37
W15R | 3.55
W15S | 3.52
W15T | 3.3
W15V | 3.49

Variant | protein stability index
W15Y | 2.62
D16A | 1.96
D16C | 1.55
D16E | 2.69
D16F | 1.58
D16G | 2.39
D16H | 2.09
D16I | 2.37
D16K | 2.26
D16L | 2.32
D16M | 2.12
D16N | 2.42
D16P | 2.46
D16Q | 2.48
D16R | 2.33
D16S | 2.46
D16T | 2.62
D16V | 2.12
D16W | 2.5
D16Y | 1.87
F17A | 3.45
F17C | 3.14
F17D | 3.36
F17E | 4.18
F17G | 3.15

Variant | protein stability index
F17H | 3.24
F17I | 3.1
F17K | 3.16
F17L | 3.05
F17M | 3.22
F17N | 2.85
F17P | 3.24
F17Q | 3.3
F17R | 3.04
F17S | 3.96
F17T | 3.17
F17V | 3.18
F17W | 2.58
F17Y | 2.81
P18A | 2.23
P18C | 2.6
P18D | 3.06
P18E | 2.98
P18F | 2.18
P18G | 2.32
P18H | 2.58
P18I | 2.23
P18K | 2.99
P18L | 2.25
P18M | 2.26

Variant | protein stability index
P18N | 2.72
P18Q | 2.83
P18R | 2.41
P18S | 2.59
P18T | 2.32
P18V | 2.82
P18W | 1.8
P18Y | 2.24
S19A | 3.21
S19C | 2.38
S19D | 3.43
S19E | 3.92
S19F | 2.31
S19G | 2.51
S19H | 2.58
S19I | 2.5
S19K | 2.6
S19L | 1.96
S19M | 2.79
S19N | 2.84
S19P | 2.7
S19Q | 2.95
S19R | 2.38
S19T | 2.33
S19V | 2.56

Variant | protein stability index
S19W | 1.61
S19Y | 2.12
V20A | 2.97
V20C | 2.54
V20D | 3.53
V20E | 3.63
V20F | 2.53
V20G | 2.84
V20H | 2.77
V20I | 2.78
V20K | 2.56
V20L | 2.41
V20M | 2.43
V20N | 3.23
V20P | 2.81
V20Q | 3.17
V20R | 2.94
V20S | 3
V20T | 2.52
V20W | 2.38
V20Y | 2.06
H21A | 2.9
H21C | 2.48
H21D | 3.39
H21E | 3.46

Variant | protein stability index
H21F | 2.75
H21G | 3.09
H21I | 2.77
H21K | 2.75
H21L | 2.39
H21M | 3.05
H21N | 2.96
H21P | 2.41
H21Q | 2.94
H21R | 3
H21S | 3.21
H21T | 3
H21V | 2.67
H21W | 2.18
H21Y | 2.44
N22A | 2.9
N22C | 2.11
N22D | 3.27
N22E | 3.2
N22F | 2.08
N22G | 2.63
N22H | 2.47
N22I | 2.06
N22K | 2.7
N22L | 2.53

Variant | protein stability index
N22M | 2.01
N22P | 2.57
N22Q | 2.79
N22R | 2.35
N22S | 2.33
N22T | 2.5
N22V | 1.92
N22W | 2.08
N22Y | 1.91
D23A | 1.96
D23C | 2.43
D23E | 2.72
D23F | 2.6
D23G | 2.23
D23H | 2.38
D23I | 2.27
D23K | 3.01
D23L | 1.48
D23M | 1.92
D23N | 1.86
D23P | 2.27
D23Q | 2.4
D23R | 1.88
D23S | 2.17
D23T | 2.55

Variant | protein stability index
D23V | 2.81
D23W | 2.48
D23Y | 1.98
L24A | 3.33
L24C | 3.01
L24D | 3.75
L24E | 4.01
L24F | 2.14
L24G | 3.07
L24H | 2.65
L24I | 2.44
L24K | 2.87
L24M | 2.98
L24N | 3.25
L24P | 2.85
L24Q | 3.5
L24R | 2.74
L24S | 3.51
L24T | 3.41
L24V | 2.42
L24W | 2.06
L24Y | 2.98

Variants of: B2
Assay: as above
Conditions: c terminus: a fixed tail appended

Variant | protein stability index
R24F | 1.41
N15E | 3.45
R24D | 2.41
S13Q | 2.02
N8H | 2.26
M22I | 2.72
V9C | 3.09
V5C | 1.83
K19D | 3.33
V16L | 2.38
V9T | 2.65
V5I | 3.45
L12D | 3.6
K19M | 2.06
T4A | 2.55
S13M | 3.55
K2M | 3.14
L12P | 1.52
L12I | 2.07
W14T | 1.93
V16D | 1.93
W14S | 1.78

Variant | protein stability index
V5H | 3.13
F20S | 2.3
R24C | 2.63
L12M | 2.17
F20N | 2.25
S13V | 2.88
K19L | 3.29
Q6P | 2.54
F20A | 3.35
S10A | 2.26
Y7K | 2.94
W3I | 2.66
K19T | 2.69
L21I | 3.32
R24V | 2.97
L21H | 2.98
P11N | 2.66
A23S | 2.48
V5L | 2.96
S10C | 3.37
S13R | 2.34
M22P | 2.29

Variant | protein stability index
L12A | 4.28
W3F | 2.59
Q6T | 2.6
A17M | 2.92
A17N | 1.22
V16S | 1.87
W14K | 2.24
L12S | 1.88
F20D | 1.97
V5P | 1.94
Q6S | 2.46
S13E | 1.69
V5S | 1.99
Q6H | 3.77
W3E | 1.91
V5D | 1.76
V5G | 2.31
F20Y | 2.94
S10N | 2.35
F20I | 2.27
S13D | 2.74
L21M | 2.35

Variant | protein stability index
Y7G | 1.15
V9E | 1.46
V18H | 1.78
A23V | 2.43
V16A | 2.35
L12Q | 1.72
P11G | 2.51
S10F | 2.12
V5E | 2.94
Q6N | 2.38
S10D | 2.26
S10T | 3.21
Y7T | 1.81
V5N | 1.95
V18Y | 2.04
N15K | 4.23
K19A | 1.74
R24Q | 2.94
V18E | 1.49
K2T | 3.13
Q6K | 3.19
